{"source": "paper doi:10.1101/2021.10.06.463369", "molecular_target": "T1, AITR6-His (Arabidopsis thaliana, UniProt Q9FGW7 1-302)", "T1 sequence": "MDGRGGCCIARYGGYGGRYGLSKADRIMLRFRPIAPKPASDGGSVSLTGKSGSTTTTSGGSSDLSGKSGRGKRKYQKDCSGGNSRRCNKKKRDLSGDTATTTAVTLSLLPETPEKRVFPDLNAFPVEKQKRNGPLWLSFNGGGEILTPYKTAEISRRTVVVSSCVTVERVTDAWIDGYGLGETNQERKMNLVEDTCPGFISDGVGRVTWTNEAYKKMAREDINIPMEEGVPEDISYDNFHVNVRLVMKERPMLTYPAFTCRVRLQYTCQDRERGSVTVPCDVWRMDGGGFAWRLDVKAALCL", "assay": "EMSA", "data": [{"binder": "F16 (dsDNA) DNA 1: ACTCATAAAATATGTCTTTGATTTTTTGTAGTAAT DNA 2: ATTACTACAAAAAATCAAAGACATATTTTATGAGT", "values": [{"measurement": "binding result", "value": "no binding"}]}]}
